No end group written: not given here.
B1: human recombinant (r)BCMA_Fc-AF647 (Fc fusion)
chain: MLQMAGQCSQNEYFDSLLHACIPCQLRCSSNTPPLTCQRYCNASVTNSVKGTNA
modifications: cysteine pairing not given here; also: Alexa Fluor 647 label, Fc fusion tag, unspecified
notes: In-house flow cytometry staining reagent; not shown: Fc part of an in-house reagent

Columns and labels:
[1] = target: T1, anti-BCMA CAR arm of duCD19.1-P2A-duBCMA.4 (construct 234); assay: flow cytometry, T cells with construct 234, day 8, MFI of rBCMA-Fc stain
T1 construct: also called c234; duCD19.1-duBCMA.4

[2] = target: T2, 245; assay: flow cytometry, T cells with construct 245, day 8, MFI of rBCMA-Fc stain
T2 construct: also called c245; Mono-duBCMA.4

[3] = target: B1; assay: flow cytometry, T cells with construct 244, day 8, rBCMA-Fc AF647 stain
Procedure: BCMA-CD19 dual or monoBCMA or monoCD19 CART cells were generated using human primary T cells (CD4+ and CD8+ lymphocytes) obtained by negative selection or positive selection via Prodigy upon processing blood from healthy apheresed donors. Before transduction, the T cells were activated using CD3/CD28 beads (Dynabeads® Human T-Expander CD3/CD28, Thermo Fisher Scientific) at a ratio of 1:3 (T cell to bead) in T cell medium (RPMI1640, 10% heat-inactivated fetal calf serum (FCS), 2 mM L-glutamine, 1× Penicillin/Streptomycin, 100 μM non-essential amino acids, 1 mM Sodium Pyruvate, 10 mM Hepes, and 55 μM 2-mercaptoethanol). The cells were cultured at a density of 0.5×10⁶/mL medium per well in a 24-well plate at 37° C., 5% CO₂. After 24 hours, when T cells were blasting, they were transduced with viruses at a multiplicity of infection (MOI) of 5 based on the upstream CAR titer. T cells began to divide in a logarithmic growth pattern, which was monitored by measuring the cell counts per mL, and T cells were diluted in fresh medium every two days and de-beaded and harvested for further analyses on day 8 or beyond depending on the size of the cells. Aliquots of T cells were stained to measure CAR expression by flow cytometry on day 7 or 8 on a FACS Fortessa (BD).

[4] = target: B1; assay: flow cytometry; rBCMA_Fc-AF647 staining of CAR-transduced primary human T cells, day 5 of culture (reported by the filing as CAR expression)
Procedure: (§1) BCMA CAR T cells were generated by starting with blood from healthy apheresed donors whose T cells (CD4+ and CD8+ lymphocytes) were obtained by negative selection for CD3+ T cells. These cells were activated by the addition of CD3/CD28 beads (Dynabeads® Human T-Expander CD3/CD28, Thermo Fisher Scientific) at a ratio of 1:3 (T cell to bead) in T cell medium (RPMI1640, 10% heat-inactivated fetal calf serum (FCS), 2 mM L-glutamine, 1× Penicillin/Streptomycin, 100 μM non-essential amino acids, 1 mM Sodium Pyruvate, 10 mM Hepes, and 55 μM 2-mercaptoethanol). T cells were cultured at 0.5×10⁶ T cells in 1 mL medium per well of a 24-well plate at 37° C., 5% CO₂. After 24 hours, when T cells were blasting, T cells were transduced with BCMA CAR virus at a multiplicity of infection (MOI) of 5. […] Aliquots of T cells were stained to measure CAR expression by flow cytometry at day 5 and 9 on a FACS Fortessa (BD). All BCMA CAR T cells were produced under research grade (i.e., not clinical grade) manufacturing conditions.
(§2) The BCMA-CAR surface expression and its stability was assessed by measuring CAR % and MFI (mean fluorescence intensity) at day 5 and day 9 using flow cytometry analyses of rBCMA_Fc-AF647 stained cells (FIG. 2 and Table 27).

[5] = target: B1; assay: flow cytometry; rBCMA_Fc-AF647 staining of CAR-transduced primary human T cells, day 9 of culture (reported by the filing as CAR expression)
Procedure: as §1, §2

Binder | binding result [1] | binding result [2] | binding result [3] | CAR MFI on T cells (Day 5) [4] | CAR MFI on T cells (Day 9) [5]
B1 | binds | binds | – | – | –
duCD19.1 anti-CD19 CAR (other, CAR on transduced primary human T cells; also called CTL119; Mono-duCD19.1) EIVMTQSPATLSLSPGERATLSCRASQDISKYLNWYQQKPGQAPRLLIYHTSRLHSGIPARFSGSGSGTDYTLTISSLQPEDFAVYFCQQGNTLPYTFGQGTKLEIKGGGGSGGGGSGGGGSQVQLQESGPGLVKPSETLSLTCTVSGVSLPDYGVSWIRQPPGKGLEWIGVIWGSETTYYQSSLKSRVTISKDNSKNQVSLKLSSVTAADTAVYYCAKHYYYGGSYAMDYWGQGTLVTVSSTTTPAPRPPTPAPTIASQPLSLRPEACRPAAGGAVHTRGLDFACDIYIWAPLAGTCGVLLLSLVITLYCKRGRKKLLYIFKQPFMRPVQTTQEEDGCSCRFPEEEEGGCELRVKFSRSADAPAYQQGQNQLYNELNLGRREEYDVLDKRRGRDPEMGGKPRRKNPQEGLYNELQKDKMAEAYSEIGMKGERRRGKGHDGLYQGLSTATKDTYDALHMQALPPR | – | – | no binding | – | –
B61-10 BCMA CAR (other, CAR on transduced JNL cells or primary human T cells) QVQLVESGGGVVQPGRSLRLSCAASGFTFSSYGMHWVRQAPGKGLEWVAVISYKGSNKYYADSVKGRFTISRDNSKNTLYLQMNSLRAEDTAVYYCGGSGYALHDDYYGLDVWGQGTLVTVSSGGGGSGGGGSGGGGSGGGGSQSALTQPASVSGSPGQSITISCTGTSSDVGGYNYVSWYQQHPGKAPKLMIYEVSNRLRGVSNRFSGSKSGNTASLTISGLQAEDEADYYCSSYTSSSTLYVFGSGTKVTVLTTTPAPRPPTPAPTIASQPLSLRPEACRPAAGGAVHTRGLDFACDIYIWAPLAGTCGVLLLSLVITLYCKRGRKKLLYIFKQPFMRPVQTTQEEDGCSCRFPEEEEGGCELRVKFSRSADAPAYQQGQNQLYNELNLGRREEYDVLDKRRGRDPEMGGKPRRKNPQEGLYNELQKDKMAEAYSEIGMKGERRRGKGHDGLYQGLSTATKDTYDALHMQALPPR | – | – | – | 27300 MFI | 3290 MFI
B61-02 BCMA CAR (other, CAR on transduced JNL cells or primary human T cells) QVQLVESGGGVVQPGRSLRLSCAASGFTFSSYGMHWVRQAPGKGLEWVAVISYKGSNKYYADSVKGRFTISRDNSKNTLYLQMNSLRAEDTAVYYCGGSGYALHDDYYGLDVWGQGTLVTVSSGGGGSGGGGSGGGGSGGGGSQSALTQPASVSGSPGQSITISCTGTSSDVGGYNYVSWYQQHPGKAPKLMIYEVSNRLRGVSNRFSGSKSGNTASLTISGLQAEDEADYYCSSYTSSSALYVFGSGTKVTVLTTTPAPRPPTPAPTIASQPLSLRPEACRPAAGGAVHTRGLDFACDIYIWAPLAGTCGVLLLSLVITLYCKRGRKKLLYIFKQPFMRPVQTTQEEDGCSCRFPEEEEGGCELRVKFSRSADAPAYQQGQNQLYNELNLGRREEYDVLDKRRGRDPEMGGKPRRKNPQEGLYNELQKDKMAEAYSEIGMKGERRRGKGHDGLYQGLSTATKDTYDALHMQALPPR | – | – | – | 29100 MFI | 3470 MFI
Hy03 BCMA CAR (other, CAR on transduced JNL cells or primary human T cells) EVQLVESGGGLVQPGGSLRLSCAASGFTFSGFWMSWVRQAPGKGLEWVANIKQDGSEKYYVDSVRGRFTISRDNAKNSLYLQMNSLRAEDTAVYYCARALDYYGMDVWGQGTTVTVSSGGGGSGGGGSGGGGSGGGGSDIVMTQTPLSLPVTPGEPASISCRSSQSLLDSDDGNTYLDWYLQKPGQSPRLLIYTLSYRASGVPDRFSGSGSGTDFTLKISRVEAEDVGLYYCTQRLEFPSITFGQGTRLEIKTTTPAPRPPTPAPTIASQPLSLRPEACRPAAGGAVHTRGLDFACDIYIWAPLAGTCGVLLLSLVITLYCKRGRKKLLYIFKQPFMRPVQTTQEEDGCSCRFPEEEEGGCELRVKFSRSADAPAYQQGQNQLYNELNLGRREEYDVLDKRRGRDPEMGGKPRRKNPQEGLYNELQKDKMAEAYSEIGMKGERRRGKGHDGLYQGLSTATKDTYDALHMQALPPR | – | – | – | 9460 MFI | 929 MFI
Hy52 BCMA CAR (other, CAR on transduced JNL cells or primary human T cells) EVQLVESGGGLVKPGGSLRLSCAASGFTFSSFRMNWVRQAPGKGLEWVSSISSSSSYIYYADSVKGRFTISRDNAKNSLYLQMNSLRAEDTAVYYCARWLSYYGMDVWGQGTTVTVSSGGGGSGGGGSGGGGSGGGGSDIVMTQTPLSLPVTPGEPASISCRSSQSLLDSDDGNTYLDWYLQKPGQSPQLLIYTLSFRASGVPDRFSGSGSGTDFTLKIRRVEAEDVGVYYCMQRIGFPITFGQGTRLEIKTTTPAPRPPTPAPTIASQPLSLRPEACRPAAGGAVHTRGLDFACDIYIWAPLAGTCGVLLLSLVITLYCKRGRKKLLYIFKQPFMRPVQTTQEEDGCSCRFPEEEEGGCELRVKFSRSADAPAYQQGQNQLYNELNLGRREEYDVLDKRRGRDPEMGGKPRRKNPQEGLYNELQKDKMAEAYSEIGMKGERRRGKGHDGLYQGLSTATKDTYDALHMQALPPR | – | – | – | 33700 MFI | 2860 MFI
PI61 BCMA CAR (other, CAR on transduced JNL cells or primary human T cells; also called P161; Mono PI61) QVQLQESGGGVVQPGRSLRLSCAASGFTFSSYGMHWVRQAPGKGLEWVAVISYDGSNKYYADSVKGRFTISRDNSKNTLYLQMNSLRAEDTAVYYCGGSGYALHDDYYGLDVWGQGTLVTVSSGGGGSGGGGSGGGGSQSALTQPASVSGSPGQSITISCTGTSSDVGGYNYVSWYQQHPGKAPKLMIYDVSNRPSGVSNRFSGSKSGNTASLTISGLQAEDEADYYCSSYTSSSTLYVFGSGTKVTVLTTTPAPRPPTPAPTIASQPLSLRPEACRPAAGGAVHTRGLDFACDIYIWAPLAGTCGVLLLSLVITLYCKRGRKKLLYIFKQPFMRPVQTTQEEDGCSCRFPEEEEGGCELRVKFSRSADAPAYQQGQNQLYNELNLGRREEYDVLDKRRGRDPEMGGKPRRKNPQEGLYNELQKDKMAEAYSEIGMKGERRRGKGHDGLYQGLSTATKDTYDALHMQALPPR | – | – | – | 24400 MFI | 2100 MFI

— patent US20210220404A1 (Novartis, published 2021)
